Assays:
[1] = substrate: CCCCC/C=C\C\C=C/C=C/C=C/[C@@H](SC[C@@H](NC(=O)CC[C@H](N)C(=O)O)C(=O)NCC(=O)O)[C@@H](O)CCCC(=O)O; assay: (§1) TP_TRANSPORTER: uptake in membrane vesicle from MRP2-expressing HEK-293 cells; assay type: functional, cell membranes, HEK293
[2] = substrate: C[C@]12CC[C@@H]3c4ccc(O)cc4CC[C@H]3[C@@H]1CC[C@@H]2O[C@@H]1O[C@H](C(=O)O)[C@@H](O)[C@H](O)[C@H]1O; assay: as §1; assay type: functional, cell membranes, HEK293

| Protein | Km [1] | Km [2] |
| --- | --- | --- |
| ATP-binding cassette sub-family C member 2 (Rattus norvegicus) (protein) MDKFCNSTFWDLSLLESPEADLPLCFEQTVLVWIPLGFLWLLAPWQLYSVYRSRTKRSSITKFYLAKQVFVVFLLILAAIDLSLALTEDTGQATVPPVRYTNPILYLCTWLLVLAVQHSRQWCVRKNSWFLSLFWILSVLCGVFQFQTLIRALLKDSKSNMAYSYLFFVSYGFQIVLLILTAFSGPSDSTQTPSVTASFLSSITFSWYDRTVLKGYKHPLTLEDVWDIDEGFKTRSVTSKFEAAMTKDLQKARQAFQRRLQKSQRKPEATLHGLNKKQSQSQDVLVLEEAKKKSEKTTKDYPKSWLIKSLFKTFHVVILKSFILKLIHDLLVFLNPQLLKLLIGFVKSSNSYVWFGYICAILMFAVTLIQSFCLQSYFQHCFVLGMCVRTTVMSSIYKKALTLSNLARKQYTIGETVNLMSVDSQKLMDATNYMQLVWSSVIQITLSIFFLWRELGPSILAGVGVMVLLIPVNGVLATKIRNIQVQNMKNKDKRLKIMNEILSGIKILKYFAWEPSFQEQVQGIRKKELKNLLRFGQLQSLLIFILQITPILVSVVTFSVYVLVDSANVLNAEKAFTSITLFNILRFPLSMLPMVTSSILQASVSVDRLERYLGGDDLDTSAIRRVSNFDKAVKFSEASFTWDPDLEATIQDVNLDIKPGQLVAVVGTVGSGKSSLVSAMLGEMENVHGHITIQGSTAYVPQQSWIQNGTIKDNILFGSEYNEKKYQQVLKACALLPDLEILPGGDMAEIGEKGINLSGGQKQRVSLARAAYQDADIYILDDPLSAVDAHVGKHIFNKVVGPNGLLAGKTRIFVTHGIHFLPQVDEIVVLGKGTILEKGSYRDLLDKKGVFARNWKTFMKHSGPEGEATVNNDSEAEDDDDGLIPTMEEIPEDAASLAMRRENSLRRTLSRSSRSSSRRGKSLKNSLKIKNVNVLKEKEKEVEGQKLIKKEFVETGKVKFSIYLKYLQAVGWWSILFIILFYGLNNVAFIGSNLWLSAWTSDSDNLNGTNNSSSHRDMRIGVFGALGLAQGICLLISTLWSIYACRNASKALHGQLLTNILRAPMRFFDTTPTGRIVNRFSGDISTVDDLLPQTLRSWMMCFFGIAGTLVMICMATPVFAIIIIPLSILYISVQVFYVATSRQLRRLDSVTKSPIYSHFSETVTGLPIIRAFEHQQRFLAWNEKQIDINQKCVFSWITSNRWLAIRLELVGNLVVFCSALLLVIYRKTLTGDVVGFVLSNALNITQTLNWLVRMTSEAETNIVAVERISEYINVENEAPWVTDKRPPADWPRHGEIQFNNYQVRYRPELDLVLKGITCNIKSGEKVGVVGRTGAGKSSLTNCLFRILESAGGQIIIDGIDVASIGLHDLRERLTIIPQDPILFSGSLRMNLDPFNKYSDEEVWRALELAHLRSFVSGLQLGLLSEVTEGGDNLSIGQRQLLCLGRAVLRKSKILVLDEATAAVDLETDSLIQTTIRKEFSQCTVITIAHRLHTIMDSDKIMVLDNGKIVEYGSPEELLSNRGSFYLMAKEAGIENVNHTEL | 1.1 µM | 6.9 µM |
| ATP-binding cassette sub-family C member 2 (Homo sapiens) (protein) MLEKFCNSTFWNSSFLDSPEADLPLCFEQTVLVWIPLGYLWLLAPWQLLHVYKSRTKRSSTTKLYLAKQVFVGFLLILAAIELALVLTEDSGQATVPAVRYTNPSLYLGTWLLVLLIQYSRQWCVQKNSWFLSLFWILSILCGTFQFQTLIRTLLQGDNSNLAYSCLFFISYGFQILILIFSAFSENNESSNNPSSIASFLSSITYSWYDSIILKGYKRPLTLEDVWEVDEEMKTKTLVSKFETHMKRELQKARRALQRRQEKSSQQNSGARLPGLNKNQSQSQDALVLEDVEKKKKKSGTKKDVPKSWLMKALFKTFYMVLLKSFLLKLVNDIFTFVSPQLLKLLISFASDRDTYLWIGYLCAILLFTAALIQSFCLQCYFQLCFKLGVKVRTAIMASVYKKALTLSNLARKEYTVGETVNLMSVDAQKLMDVTNFMHMLWSSVLQIVLSIFFLWRELGPSVLAGVGVMVLVIPINAILSTKSKTIQVKNMKNKDKRLKIMNEILSGIKILKYFAWEPSFRDQVQNLRKKELKNLLAFSQLQCVVIFVFQLTPVLVSVVTFSVYVLVDSNNILDAQKAFTSITLFNILRFPLSMLPMMISSMLQASVSTERLEKYLGGDDLDTSAIRHDCNFDKAMQFSEASFTWEHDSEATVRDVNLDIMAGQLVAVIGPVGSGKSSLISAMLGEMENVHGHITIKGTTAYVPQQSWIQNGTIKDNILFGTEFNEKRYQQVLEACALLPDLEMLPGGDLAEIGEKGINLSGGQKQRISLARATYQNLDIYLLDDPLSAVDAHVGKHIFNKVLGPNGLLKGKTRLLVTHSMHFLPQVDEIVVLGNGTIVEKGSYSALLAKKGEFAKNLKTFLRHTGPEEEATVHDGSEEEDDDYGLISSVEEIPEDAASITMRRENSFRRTLSRSSRSNGRHLKSLRNSLKTRNVNSLKEDEELVKGQKLIKKEFIETGKVKFSIYLEYLQAIGLFSIFFIILAFVMNSVAFIGSNLWLSAWTSDSKIFNSTDYPASQRDMRVGVYGALGLAQGIFVFIAHFWSAFGFVHASNILHKQLLNNILRAPMRFFDTTPTGRIVNRFAGDISTVDDTLPQSLRSWITCFLGIISTLVMICMATPVFTIIVIPLGIIYVSVQMFYVSTSRQLRRLDSVTRSPIYSHFSETVSGLPVIRAFEHQQRFLKHNEVRIDTNQKCVFSWITSNRWLAIRLELVGNLTVFFSALMMVIYRDTLSGDTVGFVLSNALNITQTLNWLVRMTSEIETNIVAVERITEYTKVENEAPWVTDKRPPPDWPSKGKIQFNNYQVRYRPELDLVLRGITCDIGSMEKIGVVGRTGAGKSSLTNCLFRILEAAGGQIIIDGVDIASIGLHDLREKLTIIPQDPILFSGSLRMNLDPFNNYSDEEIWKALELAHLKSFVASLQLGLSHEVTEAGGNLSIGQRQLLCLGRALLRKSKILVLDEATAAVDLETDNLIQTTIQNEFAHCTVITIAHRLHTIMDSDKVMVLDNGKIIECGSPEELLQIPGPFYFMAKEAGIENVNSTKF | 1 µM | 7.2 µM |

Reference: ChEMBL document CHEMBL2074551, “Drug resistance and ATP-dependent conjugate transport mediated by the apical multidrug resistance protein, MRP2, permanently expressed in human and canine cells” (Mol Pharmacol, 1999)
